According to US20230174609A1, “EXTENDED TIME ACTION ACYLATED INSULIN COMPOUNDS” (Eli Lilly and Company, priority 2020, published 2023):

Tests used:
[1] = molecular target: human insulin receptor subtype B (hIR-B) containing a C-terminal C9 tag (human) (UniProt P06213); experiment: cell-based or functional assay
[2] = molecular target: human insulin receptor subtype B (hIR-B) containing a C-terminal C9 tag (human) (UniProt P06213); experiment: SPA competitive radioligand binding, hIR-B membranes, 0.1% BSA
[3] = molecular target: human insulin receptor subtype B (hIR-B) containing a C-terminal C9 tag (human) (UniProt P06213); experiment: SPA competitive radioligand binding, hIR-B membranes, 0.1% HSA
[4] = molecular target: human insulin receptor subtype B (hIR-B) containing a C-terminal C9 tag (human) (UniProt P06213); experiment: SPA competitive radioligand binding, hIR-B membranes, 0.001% NP-40
[5] = molecular target: human insulin receptor subtype A (hIR-A) (human) (UniProt P06213); experiment: cell-based or functional assay

Row | receptor tyrosine auto-phosphorylation in HEK293 cells, ELISA, EC50, 0.1% BSA [1] [nM] | receptor tyrosine auto-phosphorylation in HEK293 cells, ELISA, EC50, 0.1% Casein [1] [nM] | Ki [2] [nM] | Ki [3] [nM] | Ki [4] [nM] | receptor tyrosine auto-phosphorylation in HEK293 cells, ELISA, EC50, 0.1% BSA [5] [nM] | receptor tyrosine auto-phosphorylation in HEK293 cells, ELISA, EC50, 0.1% Casein [5] [nM] | Substance
1 | 771 | 577 | 67.3 | 54.3 | 86.1 | – | – | insulin-like growth factor 1 (IGF-1) (from UniProt P05019 49-118) (ligand)
2 | 1220 | 183 | – | – | – | 3180 | 627 | Example 3 (A14E, B16H, B25H, desB30 human insulin acylated at Lys B29 with HO2C-(CH2)18-CO-γGlu-γGlu-γGlu-εLys-Gly-) (ligand)
3 | 1560 | – | – | – | – | 2550 | 588 | Example 1 (A14E, B16H, B25H, desB30 human insulin acylated at Lys B29 with HO2C-(CH2)18-CO-γGlu-γGlu-γGlu-Lys-Gly-) (ligand)
4 | 1790 | – | – | – | – | 3040 | 478 | Example 2 (A14E, B16H, B25H, desB30 human insulin acylated at Lys B29 with HO2C-(CH2)18-CO-γGlu-γGlu-γGlu-Lys-(2-[2-(2-aminoethoxy)ethoxy]acetic acid)-) (ligand)
